The test deals with streptavidin (UniProt P22629). The test is described as follows: capture of cells on streptavidin coated magnetic beads, before selection.

This passage reports proportion of cells which bind to the beads results from EP2204447B1.

Chain of UniProt P22629 (P22629 37-163 limits assumed): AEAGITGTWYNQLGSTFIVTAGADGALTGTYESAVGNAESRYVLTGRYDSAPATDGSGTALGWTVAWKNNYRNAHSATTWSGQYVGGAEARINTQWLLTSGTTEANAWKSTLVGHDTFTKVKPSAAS

“Ramos IgM (immunoglobulin of the unselected / wild-type Ramos Burkitt lymphoma cell line) (antibody)” came in with a proportion of cells which bind to the beads of 0.02%.
